The record followed here is US20080014204A1.

The experiment deals with spike protein of wild-type SARS-CoV strain HKU 39849 (SARS-CoV strain HKU 39849). The experiment in a line: cell-based or functional assay.

Substance CR03-022 (antibody) came in with a Log (TCID50/ml) with mAb (60 µg/ml CR03-022, FRhK-4 cells) (log TCID50/ml) of 4 and an NI (neutralization index) of 3.3 logs.
